In the supplement of paper PMC10567573:

B1: TPPP (parent)
chain: LCKDCQVIDGRNVTVTDVDIVFSK
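Further: lentivirally expressed fusions sorted by FACS into six bins by GFP to DsRed ratio, PSI derived from sequencing read proportions per bin multiplied by bin number.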

Variants of: B1
Experiment: protein stability index of a GFP-peptide fusion (GPS, HEK-293T) (PSI 1-6); higher = more stable
Conditions: c terminus: a fixed tail appended
Variant LCKDEQVIDGRNVTVTDVDIVFSK [C5E] has a protein stability index of 4.32.
LCKDFQVIDGRNVTVTDVDIVFSK [C5F] gave a protein stability index of 2.54.
LCKDQQVIDGRNVTVTDVDIVFSK [C5Q] showed a protein stability index of 3.75.
In the case of LCKDHQVIDGRNVTVTDVDIVFSK [C5H], the protein stability index is reported as 3.82.
LCKDVQVIDGRNVTVTDVDIVFSK [C5V] gave a protein stability index of 3.36.
LCKDPQVIDGRNVTVTDVDIVFSK [C5P] showed a protein stability index of 4.03.
For LCKDDQVIDGRNVTVTDVDIVFSK [C5D], the protein stability index was 4.39.
In the case of LCKDIQVIDGRNVTVTDVDIVFSK [C5I], the protein stability index is reported as 2.6.
For LCKDAQVIDGRNVTVTDVDIVFSK [C5A], the protein stability index was 3.62.
In the case of LCKDLQVIDGRNVTVTDVDIVFSK [C5L], the protein stability index is reported as 3.16.
Variant LCKDNQVIDGRNVTVTDVDIVFSK [C5N] has a protein stability index of 3.66.
LCKDSQVIDGRNVTVTDVDIVFSK [C5S] gave a protein stability index of 4.01.
LCKDGQVIDGRNVTVTDVDIVFSK [C5G] gave a protein stability index of 2.98.
In the case of LCKDRQVIDGRNVTVTDVDIVFSK [C5R], the protein stability index is reported as 3.38.
LCKDTQVIDGRNVTVTDVDIVFSK [C5T] showed a protein stability index of 3.35.
In the case of LCKDMQVIDGRNVTVTDVDIVFSK [C5M], the protein stability index is reported as 2.77.
LCKDWQVIDGRNVTVTDVDIVFSK [C5W] gave a protein stability index of 2.28.
LCKDKQVIDGRNVTVTDVDIVFSK [C5K] gave a protein stability index of 3.84.
In the case of LCKDYQVIDGRNVTVTDVDIVFSK [C5Y], the protein stability index is reported as 2.94.
Work on LCKDCQFIDGRNVTVTDVDIVFSK [V7F] yielded a protein stability index of 2.33.
Variant LCKDCQWIDGRNVTVTDVDIVFSK [V7W] has a protein stability index of 3.61.
Work on LCKDCQGIDGRNVTVTDVDIVFSK [V7G] yielded a protein stability index of 2.59.
LCKDCQSIDGRNVTVTDVDIVFSK [V7S] gave a protein stability index of 3.05.
Variant LCKDCQRIDGRNVTVTDVDIVFSK [V7R] has a protein stability index of 2.8.
Work on LCKDCQKIDGRNVTVTDVDIVFSK [V7K] yielded a protein stability index of 2.46.
Variant LCKDCQLIDGRNVTVTDVDIVFSK [V7L] has a protein stability index of 2.2.
With LCKDCQCIDGRNVTVTDVDIVFSK [V7C] the protein stability index was 2.4.
For LCKDCQPIDGRNVTVTDVDIVFSK [V7P], the protein stability index was 2.96.
LCKDCQAIDGRNVTVTDVDIVFSK [V7A] showed a protein stability index of 2.61.
For LCKDCQEIDGRNVTVTDVDIVFSK [V7E], the protein stability index was 2.94.
In the case of LCKDCQYIDGRNVTVTDVDIVFSK [V7Y], the protein stability index is reported as 1.53.
LCKDCQIIDGRNVTVTDVDIVFSK [V7I] showed a protein stability index of 2.33.
Variant LCKDCQQIDGRNVTVTDVDIVFSK [V7Q] has a protein stability index of 2.46.
For LCKDCQMIDGRNVTVTDVDIVFSK [V7M], the protein stability index was 2.31.
LCKDCQNIDGRNVTVTDVDIVFSK [V7N] gave a protein stability index of 2.61.
In the case of LCKDCQHIDGRNVTVTDVDIVFSK [V7H], the protein stability index is reported as 2.44.
In the case of LCKDCQDIDGRNVTVTDVDIVFSK [V7D], the protein stability index is reported as 3.64.
Work on LCKDCQTIDGRNVTVTDVDIVFSK [V7T] yielded a protein stability index of 2.87.
With LCKDCQVIDRRNVTVTDVDIVFSK [G10R] the protein stability index was 2.51.
LCKDCQVIDNRNVTVTDVDIVFSK [G10N] gave a protein stability index of 2.39.
LCKDCQVIDKRNVTVTDVDIVFSK [G10K] gave a protein stability index of 2.88.
In the case of LCKDCQVIDLRNVTVTDVDIVFSK [G10L], the protein stability index is reported as 1.61.
LCKDCQVIDWRNVTVTDVDIVFSK [G10W] gave a protein stability index of 2.33.
For LCKDCQVIDMRNVTVTDVDIVFSK [G10M], the protein stability index was 1.54.
Variant LCKDCQVIDHRNVTVTDVDIVFSK [G10H] has a protein stability index of 2.8.
Variant LCKDCQVIDDRNVTVTDVDIVFSK [G10D] has a protein stability index of 3.35.
For LCKDCQVIDFRNVTVTDVDIVFSK [G10F], the protein stability index was 1.77.
In the case of LCKDCQVIDYRNVTVTDVDIVFSK [G10Y], the protein stability index is reported as 1.99.
LCKDCQVIDPRNVTVTDVDIVFSK [G10P] gave a protein stability index of 2.63.
LCKDCQVIDTRNVTVTDVDIVFSK [G10T] gave a protein stability index of 2.52.
LCKDCQVIDQRNVTVTDVDIVFSK [G10Q] gave a protein stability index of 2.47.
LCKDCQVIDSRNVTVTDVDIVFSK [G10S] showed a protein stability index of 2.74.
For LCKDCQVIDIRNVTVTDVDIVFSK [G10I], the protein stability index was 1.3.
For LCKDCQVIDARNVTVTDVDIVFSK [G10A], the protein stability index was 2.31.
With LCKDCQVIDCRNVTVTDVDIVFSK [G10C] the protein stability index was 2.14.
LCKDCQVIDERNVTVTDVDIVFSK [G10E] showed a protein stability index of 2.55.
With LCKDCQVIDVRNVTVTDVDIVFSK [G10V] the protein stability index was 2.34.
For LCKDCQVPDGRNVTVTDVDIVFSK [I8P], the protein stability index was 3.19.
Variant LCKDCQVWDGRNVTVTDVDIVFSK [I8W] has a protein stability index of 1.83.
Work on LCKDCQVNDGRNVTVTDVDIVFSK [I8N] yielded a protein stability index of 2.35.
Work on LCKDCQVRDGRNVTVTDVDIVFSK [I8R] yielded a protein stability index of 3.2.
In the case of LCKDCQVEDGRNVTVTDVDIVFSK [I8E], the protein stability index is reported as 3.21.
Work on LCKDCQVGDGRNVTVTDVDIVFSK [I8G] yielded a protein stability index of 2.54.
With LCKDCQVKDGRNVTVTDVDIVFSK [I8K] the protein stability index was 2.6.
LCKDCQVLDGRNVTVTDVDIVFSK [I8L] gave a protein stability index of 2.24.
In the case of LCKDCQVSDGRNVTVTDVDIVFSK [I8S], the protein stability index is reported as 2.79.
Work on LCKDCQVDDGRNVTVTDVDIVFSK [I8D] yielded a protein stability index of 3.97.
Work on LCKDCQVFDGRNVTVTDVDIVFSK [I8F] yielded a protein stability index of 2.42.
Work on LCKDCQVMDGRNVTVTDVDIVFSK [I8M] yielded a protein stability index of 2.81.
With LCKDCQVYDGRNVTVTDVDIVFSK [I8Y] the protein stability index was 2.
With LCKDCQVTDGRNVTVTDVDIVFSK [I8T] the protein stability index was 3.12.
LCKDCQVADGRNVTVTDVDIVFSK [I8A] showed a protein stability index of 2.84.
Variant LCKDCQVVDGRNVTVTDVDIVFSK [I8V] has a protein stability index of 3.47.
Work on LCKDCQVCDGRNVTVTDVDIVFSK [I8C] yielded a protein stability index of 2.3.
Variant LCKDCQVQDGRNVTVTDVDIVFSK [I8Q] has a protein stability index of 3.14.
Work on LCKDCQVHDGRNVTVTDVDIVFSK [I8H] yielded a protein stability index of 2.43.
In the case of LCKNCQVIDGRNVTVTDVDIVFSK [D4N], the protein stability index is reported as 1.69.
LCKSCQVIDGRNVTVTDVDIVFSK [D4S] showed a protein stability index of 1.71.
With LCKQCQVIDGRNVTVTDVDIVFSK [D4Q] the protein stability index was 1.97.
Variant LCKHCQVIDGRNVTVTDVDIVFSK [D4H] has a protein stability index of 1.57.
With LCKVCQVIDGRNVTVTDVDIVFSK [D4V] the protein stability index was 1.82.
Work on LCKPCQVIDGRNVTVTDVDIVFSK [D4P] yielded a protein stability index of 2.25.
LCKYCQVIDGRNVTVTDVDIVFSK [D4Y] gave a protein stability index of 1.81.
With LCKKCQVIDGRNVTVTDVDIVFSK [D4K] the protein stability index was 2.31.
For LCKMCQVIDGRNVTVTDVDIVFSK [D4M], the protein stability index was 2.1.
In the case of LCKECQVIDGRNVTVTDVDIVFSK [D4E], the protein stability index is reported as 2.71.
Work on LCKTCQVIDGRNVTVTDVDIVFSK [D4T] yielded a protein stability index of 1.77.
With LCKICQVIDGRNVTVTDVDIVFSK [D4I] the protein stability index was 2.02.
In the case of LCKGCQVIDGRNVTVTDVDIVFSK [D4G], the protein stability index is reported as 2.42.
LCKRCQVIDGRNVTVTDVDIVFSK [D4R] gave a protein stability index of 2.73.
In the case of LCKLCQVIDGRNVTVTDVDIVFSK [D4L], the protein stability index is reported as 1.83.
For LCKFCQVIDGRNVTVTDVDIVFSK [D4F], the protein stability index was 1.93.
Work on LCKCCQVIDGRNVTVTDVDIVFSK [D4C] yielded a protein stability index of 2.35.
Variant LCKDCLVIDGRNVTVTDVDIVFSK [Q6L] has a protein stability index of 1.97.
